This data set concerns the molecule itself. The data set can be described thus: SEC; analytical SEC, S200 Increase 3.2/300 GL, 20 mM Tris pH 7.5, 100 mM NaCl, 0.5 mM TCEP; 0.1 mL of 1.2 mg/mL (5 uM hexamer/pseudohexamer) Msp1 with 2 mM ATP, 2 mM MgCl2; 0.1 mL/min. For orientation: SEC sorts molecules by how far they enter the pores of the column.

B1: His6‐WT‐EQ‐2xStrep Dimer (covalently linked Msp1 dimer, soluble) (enzyme)
chain: DVESGPLSGKSRESKAKQSLQWEKLVKRSPALAEVTLDAYERTILSSIVTPDEINITFQDIGGLDPLISDLHESVIYPLMMPEVYSNSPLLQAPSGVLLYGPPGCGKTMLAKALAKESGANFISIRMSSIMDKWYGESNKIVDAMFSLANKLQPCIIFIDEIDSFLRERSSTDHEVTATLKAEFMTLWDGLLNNGRVMIIGATNRINDIDDAFLRRLPKRFLVSLPGSDQRYKILSVLLKDTKLDEDEFDLQLIADNTKGFSGSDLKELCREAALDAAKEYIKQKRQLIDSGTIDVNDTSSLKIRPLKTKDFTKKLRMDATSTLSSQPLDASGSGGSEASASAGAAGSGDGSGSGGSEGGTSGATDVESGPLSGKSRESKAKQSLQWEKLVKRSPALAEVTLDAYERTILSSIVTPDEINITFQDIGGLDPLISDLHESVIYPLMMPEVYSNSPLLQAPSGVLLYGPPGCGKTMLAKALAKESGANFISIRMSSIMDKWYGESNKIVDAMFSLANKLQPCIIFIDQIDSFLRERSSTDHEVTATLKAEFMTLWDGLLNNGRVMIIGATNRINDIDDAFLRRLPKRFLVSLPGSDQRYKILSVLLKDTKLDEDEFDLQLIADNTKGFSGSDLKELCREAALDAAKEYIKQKRQLIDSGTIDVNDTSSLKIRPLKTKDFTKKLRMDATSTLSSQPLD
notes: Msp1, subunit 1, wild type, deletion of the first 32 residues to remove the TMD; 35-residue flexible linker between the two subunits; Msp1, subunit 2, Walker B mutant E193Q, deletion of the first 32 residues to remove the TMD; Two Msp1 subunits on one chain; on SEC a mixture of the single chain (dimer) and the pseudohexamer (three chains); also called WT‐EQ dimer; source: E. coli BL21 pRIL, …
As for B1, the “stoichiometry N” value stood at 3.

B2: His6‐EQ‐WT‐2xStrep Dimer (covalently linked Msp1 dimer, soluble) (enzyme)
chain: DVESGPLSGKSRESKAKQSLQWEKLVKRSPALAEVTLDAYERTILSSIVTPDEINITFQDIGGLDPLISDLHESVIYPLMMPEVYSNSPLLQAPSGVLLYGPPGCGKTMLAKALAKESGANFISIRMSSIMDKWYGESNKIVDAMFSLANKLQPCIIFIDQIDSFLRERSSTDHEVTATLKAEFMTLWDGLLNNGRVMIIGATNRINDIDDAFLRRLPKRFLVSLPGSDQRYKILSVLLKDTKLDEDEFDLQLIADNTKGFSGSDLKELCREAALDAAKEYIKQKRQLIDSGTIDVNDTSSLKIRPLKTKDFTKKLRMDATSTLSSQPLDASGSGGSEASASAGAAGSGDGSGSGGSEGGTSGATDVESGPLSGKSRESKAKQSLQWEKLVKRSPALAEVTLDAYERTILSSIVTPDEINITFQDIGGLDPLISDLHESVIYPLMMPEVYSNSPLLQAPSGVLLYGPPGCGKTMLAKALAKESGANFISIRMSSIMDKWYGESNKIVDAMFSLANKLQPCIIFIDEIDSFLRERSSTDHEVTATLKAEFMTLWDGLLNNGRVMIIGATNRINDIDDAFLRRLPKRFLVSLPGSDQRYKILSVLLKDTKLDEDEFDLQLIADNTKGFSGSDLKELCREAALDAAKEYIKQKRQLIDSGTIDVNDTSSLKIRPLKTKDFTKKLRMDATSTLSSQPLD
notes: Msp1, subunit 1, Walker B mutant E193Q, deletion of the first 32 residues to remove the TMD; 35-residue flexible linker between the two subunits; Msp1, subunit 2, wild type, deletion of the first 32 residues to remove the TMD; Two Msp1 subunits on one chain; on SEC a mixture of the single chain (dimer) and the pseudohexamer (three chains); also called EQ‐WT dimer; source: E. coli BL21 pRIL, …
In the case of B2, the “stoichiometry N” value is 3.

B3: His6‐TEV‐Msp1 E193Q Monomer (enzyme, UniProt P28737 33-362, looked up)
chain: DVESGPLSGKSRESKAKQSLQWEKLVKRSPALAEVTLDAYERTILSSIVTPDEINITFQDIGGLDPLISDLHESVIYPLMMPEVYSNSPLLQAPSGVLLYGPPGCGKTMLAKALAKESGANFISIRMSSIMDKWYGESNKIVDAMFSLANKLQPCIIFIDQIDSFLRERSSTDHEVTATLKAEFMTLWDGLLNNGRVMIIGATNRINDIDDAFLRRLPKRFLVSLPGSDQRYKILSVLLKDTKLDEDEFDLQLIADNTKGFSGSDLKELCREAALDAAKEYIKQKRQLIDSGTIDVNDTSSLKIRPLKTKDFTKKLRMDATSTLSSQPLD
notes: Msp1 with the Walker B mutation E193Q, soluble construct: deletion of the first 32 residues as stated for the soluble constructs; A TEV site follows the His6 tag; No Strep tag; also called EQ; EQ monomer; source: E. coli BL21 pRIL, purified (Ni-NTA)
As for B3, the “stoichiometry N” value worked out at 6.

Usually stoichiometry N stands for the number of molecules, sites or subunits per partner or assembly.

The values above are taken from PMC12793716, “Linked dimers of the AAA+ ATPase Msp1 reveal energetic demands and mechanistic plasticity for substrate extraction from lipid bilayers” (Febs Letters, 2025).
